# Results: PMC2786168
# Positions count from the first letter of the chain named.
# T1: RNase R R572K (Escherichia coli, UniProt P21499 1-813, R572K)
# T1 sequence: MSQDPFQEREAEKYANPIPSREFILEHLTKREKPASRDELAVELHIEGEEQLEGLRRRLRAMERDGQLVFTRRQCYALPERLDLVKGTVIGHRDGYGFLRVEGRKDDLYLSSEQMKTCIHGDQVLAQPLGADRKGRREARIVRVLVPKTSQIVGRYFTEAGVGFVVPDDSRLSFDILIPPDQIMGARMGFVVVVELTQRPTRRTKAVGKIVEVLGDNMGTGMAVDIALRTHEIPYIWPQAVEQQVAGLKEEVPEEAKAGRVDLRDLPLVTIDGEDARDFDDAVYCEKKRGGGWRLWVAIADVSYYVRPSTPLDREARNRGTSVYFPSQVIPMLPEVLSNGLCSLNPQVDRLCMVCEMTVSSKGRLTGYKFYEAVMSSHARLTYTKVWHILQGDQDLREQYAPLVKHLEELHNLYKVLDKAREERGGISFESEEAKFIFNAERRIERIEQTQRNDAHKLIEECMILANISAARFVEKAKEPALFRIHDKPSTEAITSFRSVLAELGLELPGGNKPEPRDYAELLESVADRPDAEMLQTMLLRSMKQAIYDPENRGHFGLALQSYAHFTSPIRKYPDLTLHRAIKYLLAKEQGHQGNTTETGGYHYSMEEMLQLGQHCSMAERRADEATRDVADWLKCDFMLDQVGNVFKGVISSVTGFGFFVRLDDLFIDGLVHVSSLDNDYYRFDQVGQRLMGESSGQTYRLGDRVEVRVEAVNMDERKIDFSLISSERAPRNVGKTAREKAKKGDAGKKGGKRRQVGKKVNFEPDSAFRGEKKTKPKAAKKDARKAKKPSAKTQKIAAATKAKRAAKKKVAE
# T2: RNase R wild-type (Escherichia coli, UniProt P21499 1-813)
# T2 sequence: T1 sequence with K572R
# B1: A17 (ssRNA)
# RNA: AAAAAAAAAAAAAAAAA
# Legend:
# [1] = target: T1, RNase R R572K; test: filter binding
# [2] = target: T2, RNase R wild-type; test: filter binding
binder,measurement,setting,value
B1,Kd,[1],500 ± 100 pM
same,Kd,[2],800 ± 100 pM
